For test [1], the target named is tissue factor (TF) antigen (UniProt P13726). As to the kind of experiment: SPR; log ratio against wild-type D3H44 Fab.
Test [2] shares this target. The test can be described thus: SPR (ProteOn XPR36): Fab captured via His tag on anti-penta-His, TF as analyte, 1:1 fit.
For test [3] the target is unchanged. As to the kind of experiment: SPR (ProteOn), Fab captured on anti-penta His, TF as analyte, 1:1 fit.
For test [4] the target is unchanged. As to the kind of experiment: SPR; against wild-type D3H44 Fab.
Test [5] has the same target. The test can be described thus: SPR (ProteOn), Fab captured by anti-penta-His, TF as analyte, 1:1 fit.
Test [6] has the same target. The test can be described thus: SPR (ProteOn), against wild-type D3H44 Fab.

Chain of tissue factor (TF) antigen (P13726 33-251 limits assumed): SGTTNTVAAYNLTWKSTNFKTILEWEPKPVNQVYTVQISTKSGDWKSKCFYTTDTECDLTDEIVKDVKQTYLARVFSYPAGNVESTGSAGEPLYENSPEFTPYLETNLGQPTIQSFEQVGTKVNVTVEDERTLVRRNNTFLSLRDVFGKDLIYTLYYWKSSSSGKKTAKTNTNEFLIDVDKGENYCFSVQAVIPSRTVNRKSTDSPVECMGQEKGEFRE

The term Kd denotes a measure of binding affinity in units of concentration. Low values mean a tighter complex, high ones a looser complex. With “D3H44 Fab heterodimer, H L143E_K145T / L Q124R (H1L1 of LCCA set 9587)”, the Change in KD with respect to wild type (-(log(KD design) - log(KD wt))) in test [1] was -0.25. Further, the Kd in test [2] was found to be 280 pM.
For the substance “D3H44 Fab heterodimer, H1 L124R_S186K / L1 V133G_S176D_T178D_T180E (H1L1 of LCCA set 9473)”, the Kd in test [3] was 180 pM. Also, the Change in KD with respect to wild type (-(log(KD design) - log(KD wt))) in test [4] is -0.07.
Turning to “D3H44 Fab heterodimer, H1 L124E_L143D_K145M / L1 Q124K_V133G_S176R_T178K (H1L1 of LCCA set 9178)”, the Kd in test [3] worked out at 220 pM. The substance also displayed a Change in KD with respect to wild type (-(log(KD design) - log(KD wt))) in test [4] of -0.15.
The matching figures for “D3H44 Fab heterodimer, H1 L124E_L143D_K145T / L1 Q124K_V133G_S176R_T178K (H1L1 of LCCA sets 9216 and 9220)”: 190 pM and -0.08.
As for “D3H44 Fab heterodimer, H S186R / L Q124E_T180E (H1L1 of LCCA sets 9891, 9901, 9898 and 9893)”, the Change in KD with respect to wild type (-(log(KD design) - log(KD wt))) in test [1] is 0.36. Moreover, the Kd in test [2] came out at 70 pM.
For the substance “D3H44 Fab heterodimer, H L143R / L Q124E_V133E (H1L1 of LCCA sets 9735 and 9737)”, in test [1], the Change in KD with respect to wild type (-(log(KD design) - log(KD wt))) was -0.09. This substance displayed a dissociation constant (Kd) in test [2] of 200 pM.
The matching figures for “D3H44 Fab heterodimer, H Q179R / L Q124E_S176L_T180E (H1L1 of LCCA set 9808)”: -0.02 and 170 pM.
For the substance “D3H44 Fab heterodimer, H S186K / L Q124E_Q160E_T178E (H1L1 of LCCA set 9829)”, in test [1], the Change in KD with respect to wild type (-(log(KD design) - log(KD wt))) came out at 0.41. This substance gave a Kd in test [2] of 60 pM.
As for “D3H44 Fab heterodimer, H S186R / L Q124E_S176L_T180E (H1L1 of LCCA set 9886)”, the Change in KD with respect to wild type (-(log(KD design) - log(KD wt))) in test [1] is -0.06. In test [2], the Kd amounted to 180 pM.
As to “D3H44 Fab heterodimer, H Q179K / L Q124E_T180E (H1L1 of LCCA sets 9797, 9794, 9789 and 9787)”, the Change in KD with respect to wild type (-(log(KD design) - log(KD wt))) in test [1] turned out to be 0.16. In addition, the Kd in test [2] was 110 pM.
Regarding “D3H44 Fab heterodimer, H1 Q179K / L1 Q124E_Q160E_T180E (H1L1 of LCCA set 9763)”, the dissociation constant (Kd) in test [3] is 320 pM. Besides, in test [4], the Change in KD with respect to wild type (-(log(KD design) - log(KD wt))) is -0.31.
Turning to “D3H44 Fab heterodimer, H1 S186K / L1 Q124E_T180E (H1L1 of LCCA set 9862)”, the Kd in test [3] was 60 pM. The same substance came in with a Change in KD with respect to wild type (-(log(KD design) - log(KD wt))) in test [4] of 0.46.
Take “D3H44 Fab heterodimer, H L143E_K145T_Q179E_S188L / L Q124R_T178R (H1L1 of LCCA sets 9696 and 9692)”: the Change in KD with respect to wild type (-(log(KD design) - log(KD wt))) in test [1] was -0.34. This substance also had a Kd in test [2] of 340 pM.
Turning to “D3H44 Fab heterodimer, H S186K / L Q124E_S176L_T180E (H1L1 of LCCA set 9848)”, the Change in KD with respect to wild type (-(log(KD design) - log(KD wt))) in test [1] is 0.03. Besides, in test [2], the Kd is 150 pM.
Regarding “D3H44 Fab heterodimer, H1 A139W_S188L / L1 F116A_L135V (H1L1 of LCCA sets 9063 and 9062)”, the Kd in test [3] stood at 170 pM. The substance further yielded a Change in KD with respect to wild type (-(log(KD design) - log(KD wt))) in test [4] of -0.02.
Take “D3H44 Fab heterodimer, H S186R / L Q124E_Q160E_T180E (H1L1 of LCCA sets 9876 and 9874)”: the Change in KD with respect to wild type (-(log(KD design) - log(KD wt))) in test [1] is 0.51. This substance had a Kd in test [2] of 50 pM.
In the case of “D3H44 Fab heterodimer, H1 A139G_V190A / L1 L135W_S176L (H1L1 of LCCA set 9056)”, in test [3], the Kd worked out at 160 pM. In test [4], this substance registered a Change in KD with respect to wild type (-(log(KD design) - log(KD wt))) of -0.02.
“D3H44 Fab heterodimer, H Q179K / L Q124E_Q160E_T180E (H1L1 of LCCA sets 9761, 9769 and 9767)”: the Change in KD with respect to wild type (-(log(KD design) - log(KD wt))) in test [1] is -0.31. In test [2], this substance came in with a Kd of 320 pM.
As to “D3H44 Fab heterodimer, H1 S186R / L1 Q124E_T180E (H1L1 of LCCA set 9900)”, the Kd in test [3] was 70 pM. The substance also gave a Change in KD with respect to wild type (-(log(KD design) - log(KD wt))) in test [4] of 0.36.
“D3H44 Fab heterodimer, H S186K / L Q124E_T180E (H1L1 of LCCA sets 9855, 9860 and 9863)”: in test [1], the Change in KD with respect to wild type (-(log(KD design) - log(KD wt))) is 0.46. In test [2], this substance came in with a Kd of 60 pM.
The matching figures for “D3H44 Fab heterodimer, H L143E_K145T_Q179D / L Q124R_T178K (H1L1 of LCCA set 9626)”: 0.12 and 120 pM.
In the same order, the values of “D3H44 Fab heterodimer, H Q179K / L Q124E_S176L_T180E (H1L1 of LCCA set 9782)” are 0.28 and 80 pM.
Regarding “D3H44 Fab heterodimer, H S186K / L Q124E_Q160E_T180E (H1L1 of LCCA sets 9836 and 9841)”, the Change in KD with respect to wild type (-(log(KD design) - log(KD wt))) in test [1] worked out at 0.09. Also, the Kd in test [2] was found to be 130 pM.
In test [5], “D3H44 Fab heterodimer, H1L1 of LCCA sets 9831, 9833 and 9841 (H: S186K; L: Q124E_Q160E_T180E)” displayed a dissociation constant Kd of 130 pM. In addition, in test [6], the Change in KD with respect to wild type (-(log(KD design) - log(KD wt))) was 0.09.
In test [5], “D3H44 Fab heterodimer, H1L1 of LCCA set 9901 (H: S186R; L: Q124E_T180E)” showed a Kd of 70 pM. In test [6], this substance displayed a Change in KD with respect to wild type (-(log(KD design) - log(KD wt))) of 0.36.
In turn, “D3H44 Fab heterodimer, H1L1 of LCCA set 9887 (H: S186R; L: Q124E_T178E)” registered a Kd in test [5] of 140 pM. This substance also yielded a Change in KD with respect to wild type (-(log(KD design) - log(KD wt))) in test [6] of 0.06.
The matching figures for “D3H44 Fab heterodimer, H1L1 of LCCA set 9863 (H: S186K; L: Q124E_T180E)”: 60 pM and 0.46.
Consider “D3H44 Fab heterodimer, H L143E_K145T_Q179E / L Q124R_Q160K_T178R (H1L1 of LCCA set 9654)”, for which the Change in KD with respect to wild type (-(log(KD design) - log(KD wt))) in test [1] was 0.02. The same substance returned a dissociation constant (Kd) in test [2] of 150 pM.
As for “D3H44 Fab heterodimer, H1L1 of LCCA sets 9869, 9871, 9874, 9876 and 9879 (H: S186R; L: Q124E_Q160E_T180E)”, in test [5], the Kd is 50 pM. Moreover, in test [6], the Change in KD with respect to wild type (-(log(KD design) - log(KD wt))) turned out to be 0.51.
With “D3H44 Fab heterodimer, H S186K / L Q124E_S131T_T178Y_T180E (H1L1 of LCCA set 9846)”, in test [1], the Change in KD with respect to wild type (-(log(KD design) - log(KD wt))) came out at 0.09. This substance also gave a dissociation constant (Kd) in test [2] of 130 pM.
Take “D3H44 Fab heterodimer, H1L1 of LCCA sets 9708, 9712 and 9716 (H: L143E_K145T_S188L; L: Q124R_Q160K_T178R)”: the Kd in test [5] is 240 pM. The Change in KD with respect to wild type (-(log(KD design) - log(KD wt))) in test [6] is -0.19.
The substance “D3H44 Fab heterodimer, H1L1 of LCCA set 9983 (H: Q179K; L: S131E)” gave a Kd in test [5] of 140 pM. Further, in test [6], the Change in KD with respect to wild type (-(log(KD design) - log(KD wt))) amounted to 0.05.

Values taken from US11306156.
